Earlier results, collected in US10500169B2, “Supression of IgE production by compounds derived from traditional chinese medicine” (Sean N. Parker Foundation, priority 2014, dated 2019).

Tested on: peanut allergic patients

B1: TNX-901: anti-IgE antibody (antibody, chains of the INN, looked up, V domains shown)
VH: QVQLVQSGAEVKKPGASVKVSCKASGYTFSMYWLEWVRQAPGHGLEWVGEISPGTFTTNYNEKFKARATFTADTSTNTAYMELSSLRSEDTAVYYCARFSHFSGSNYDYFDYWGQGTLVTVSS
VL: DILLTQSPGTLSLSPGERATLSCRASQSIGTNIHWYQQKPGQAPRLLIKYASESISGIPSRFSGSGSGTDFTLTISRLEPEDFAMYYCQQSDSWPTTFGQGTKVEIK
- median threshold of sensitivity to peanut after treatment (increased from 178 mg peanut protein): 2.8 grams
- symptoms following peanut challenge (vs placebo group): significant decrease in symptoms
